Laboratory results reported in publication PMC5751167, “Buprofezin Is Metabolized by CYP353D1v2, a Cytochrome P450 Associated with Imidacloprid Resistance in Laodelphax striatellus” (International Journal of Molecular Sciences, 2017).

Tests used:
[1] = substrate: O=[N+]([O-])NC1=NCCN1Cc1ccc(Cl)nc1; test: substrate depletion, Sf9 microsomes; type: biochemical, Laodelphax striatellus; conditions: 0-50 µM substrate; CPR co-expressed
[2] = substrate: COc1ccc([N+](=O)[O-])cc1; test: cells, lysate or membranes; type: biochemical, Laodelphax striatellus; conditions: NADPH, 30 °C, 1 pmol P450, 0-100 µM substrate, CPR co-expressed

B1: CYP353D1v2 (Laodelphax striatellus) (protein)
chain: MVKINGKWLTKYFSTAKVKPYDEIPTLPKWPFLGHAYLFFPNGKYKLERLGDAILDLRRTLGNIFKLNLNGDDLVVSLNPDDARSMYTAEGKLPYRPSFPALANYRKNTFGSIGVVPGNGEEWLHYRKAVLPLLKSNIVVAYAEDHKLIASRFVDYIGRNRGRSNELNDVFNHLLKFAIEATSITCPGVLFNCLDESLDKSDVSNVVTKASVDFMEGMYRTLVEPPFWKMWKTKSYRKLEQSHTAIHRLIADGIEKTKEDLKNNPNKHPFMASLFENSTLSENEILVLAMEVFLGGLDATPTTLAMTLHYLAQNPEAQSKAFNEISSQKQLKYVEACLKETLRLAPSAGASSRYLAEEAVLSGYLVPANTLVAVFSPITSRDEKYFHSPLEFIPERWFRENKAMRHPFASIPFGFGARVCPGRHFVNQEMVIFLTEILRNFKLNSNNGQVGMIHRMNRIPDQEIAIFFNDR
notes: with NADPH--cytochrome P450 reductase
- Km [1]: 6.41 ± 1.27 µM
- kcat [1]: 0.001 ± 1.3e-05 s⁻¹
- Km [2]: 6.21 ± 0.65 µM
